Measured values: IntAct's records for PubMed 20877282

B1: Plexin-A2 (Mus musculus), P70207 (parent)
chain: MEQRRFYLRAMQADNLSVVLLSVAWLLLARGTTGMPQYSTFHSENRDWTFNHLTVHRRTGAVYVGAINRVYKLTGNLTIQVAHKTGPEEDNKACYPPLIVQPCSEVLTLTNNVNKLLIIDYSENRLLACGSLYQGVCKLLRLDDLFILVEPSHKKEHYLSSVNKTGTMYGVIVRSEGEDGKLFIGTAVDGKQDYFPTLSSRKLPRDPESSAMLDYELHSDFVSSLIKIPSDTLALVSHFDIFYIYGFASGGFVYFLTVQPETPDGMAINSAGDLFYTSRIVRLCKDDPKFHSYVSLPFGCTRAGVEYRLLQAAYLAKPGEALAQAFNISSDEDVLFAIFSKGQKQYHHPPDDSALCAFPIRAINLQIKERLQSCYHGEGNLELNWLLGKDVQCTKAPVPIDDNFCGLDINQPLGGSTPVEGLTLYTTSRDRLTSVASYVYNGYSVVFVGTKSGKLKKIRADGPPHGGVQYEMVSVFKDGSPILRDMAFSINQLYLYVMSERQVTRVPVESCEQYTTCGECLSSGDPHCGWCALHNMCSRRDKCQRAWEANRFAASISQCMSLEVHPNSISVSDHSRLLSLVVNDAPNLSEGIACAFGNLTEVEGQVSGSQVICISPGPKDVPVIPLDQDWFGLELQLRSKETGKIFVSTEFKFYNCSAHQLCLSCVNSAFRCHWCKYRNLCTHDPTTCSFQEGRINVSEDCPQLVPTEEILIPVGEVKPITLKARNLPQPQSGQRGYECVLSIQGAVHRVPALRFNSSSVQCQNSSYQYDGMDISNLAVDFAVVWNGNFIIDNPQDLKVHLYKCAAQRESCGLCLKADHKFECGWCSGERRCTLHQHCPSTSSPWLDWSSHNVKCSNPQITEILTVSGPPEGGTRVTIHGVNLGLDFSEIAHHVQVAGVPCTPIPGEYIIAEQIVCEMGHAVIGTTSGPVRLCIGECKPEFMTKSHQQYTFVNPSVLSLSPIRGPESGGTMVTITGHYLGAGSSVAVYLGNQTCEFYGRSMNEIVCVSPPSSNGLGPVPVSVSVDRARVDSSLQFEYIDDPRVQRIEPEWSITSGHTPLTITGFNLDVIQEPRVRVKFNGKESVNVCTVVNTTTLTCLAPSLTSDYRPGLDTVERPDEFGFLFNNVQSLLIYNDTKFIYYPNPTFELLSPTGILDQKPGSPIILKGKNLCPPASGGAKLNYTVMIGETPCTVTVSETQLLCEPPNLTGQHKVMVHVGGMVFSPGSVSVISDSLLTLPAIISIAAGGSLLLIIVIIVLIAYKRKSRENDLTLKRLQMQMDNLESRVALECKEAFAELQTDINELTSDLDRSGIPYLDYRTYAMRVLFPGIEDHPVLRELEVQGNGQQHVEKALKLFAQLINNKVFLLTFIRTLELQRSFSMRDRGNVASLIMTGLQGRLEYATDVLKQLLSDLIDKNLENKNHPKLLLRRTESVAEKMLTNWFAFLLHKFLKECAGEPLFMLYCAIKQQMEKGPIDAITGEARYSLSEDKLIRQQIEYKTLILNCVNPDNENSPEIPVKVLNCDTITQVKEKILDAVYKNVPYSQRPRAVDMDLEWRQGRIARVVLQDEDITTKIEGDWKRLNTLMHYQVSDRSVVALVPKQTSSYNIPASASISRTSISRYDSSFRYTGSPDSLRSRVPMITPDLESGVKVWHLVKNHDHGDQKEGDRGSKMVSEIYLTRLLATKGTLQKFVDDLFETLFSTVHRGSALPLAIKYMFDFLDEQADRHSIHDTDVRHTWKSNCLPLRFWVNVIKNPQFVFDIHKGSITDACLSVVAQTFMDSCSTSEHRLGKDSPSNKLLYAKDIPSYKNWVERYYADIAKLPAISDQDMNAYLAEQSRLHATEFNMLSALNEIYSYVSKYSEELIGALEQDEQARRQRLAYKVEHLINAMSIES
partner: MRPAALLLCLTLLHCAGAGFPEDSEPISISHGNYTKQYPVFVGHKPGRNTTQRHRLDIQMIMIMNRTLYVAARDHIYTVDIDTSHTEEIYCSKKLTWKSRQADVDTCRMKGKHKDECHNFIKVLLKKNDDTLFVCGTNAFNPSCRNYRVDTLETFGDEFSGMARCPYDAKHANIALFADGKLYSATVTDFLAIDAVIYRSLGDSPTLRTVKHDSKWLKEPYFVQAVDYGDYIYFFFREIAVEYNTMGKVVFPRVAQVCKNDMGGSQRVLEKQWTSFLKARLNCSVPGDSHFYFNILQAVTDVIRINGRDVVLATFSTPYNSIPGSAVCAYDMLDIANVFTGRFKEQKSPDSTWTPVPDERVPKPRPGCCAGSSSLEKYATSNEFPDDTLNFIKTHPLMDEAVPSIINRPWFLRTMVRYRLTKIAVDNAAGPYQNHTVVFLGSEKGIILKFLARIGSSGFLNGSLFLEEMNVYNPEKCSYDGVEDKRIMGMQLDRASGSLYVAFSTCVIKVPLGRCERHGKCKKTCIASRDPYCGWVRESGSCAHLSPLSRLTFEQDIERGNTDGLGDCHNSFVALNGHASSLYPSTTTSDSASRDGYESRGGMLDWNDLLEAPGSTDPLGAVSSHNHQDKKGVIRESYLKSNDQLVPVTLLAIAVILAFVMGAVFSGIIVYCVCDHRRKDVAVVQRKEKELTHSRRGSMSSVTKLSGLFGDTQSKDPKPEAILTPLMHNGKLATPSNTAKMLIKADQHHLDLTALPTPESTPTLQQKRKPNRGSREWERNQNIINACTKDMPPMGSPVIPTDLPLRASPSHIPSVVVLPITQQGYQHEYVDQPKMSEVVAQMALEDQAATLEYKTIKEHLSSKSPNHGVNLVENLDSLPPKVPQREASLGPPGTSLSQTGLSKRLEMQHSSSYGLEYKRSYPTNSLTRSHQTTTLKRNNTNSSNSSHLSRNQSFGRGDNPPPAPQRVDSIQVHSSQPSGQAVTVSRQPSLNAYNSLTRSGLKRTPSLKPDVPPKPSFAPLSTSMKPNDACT
B2: Semaphorin-6A (Mus musculus), O35464-1 (parent)
chain: B1 partner

Variants of: B1
Conditions: with Sema6a

effect of a mutation on the interaction | Variant
disrupting interaction | A396E
disrupting interaction | F221R

Variants of: B2
Conditions: with plxa2_mouse Plxna2, P70207

effect of a mutation on the interaction | Variant
decreasing interaction | L191R
